Values joined by “and” are separate entries in the source; they are usually repeats but may differ in a detail not shown here. Equal entries are not always repeated.
Details: Rattus norvegicus, pH 7.4, Thermal, DSC, EDTA 10 mM, NaCl 0.20 M, transition: 2, reversible: yes, whole UniProt chain shown

B1: Parvalbumin alpha wild type, P02625 (protein)
chain: MSMTDLLSAEDIKKAIGAFTAADSFDHKKFFQMVGLKKKSADDVKKVFHILDKDKSGFIEEDELGSILKGFSSDARDLSAKETKTLMAAGDKDGDGKIGVEEFSTLVAES
25 °C
  unfolding enthalpy (calorimetric): 70 kcal/mol and 75 kcal/mol
  unfolding enthalpy (van 't Hoff): 71 kcal/mol and 74 kcal/mol
  unfolding free energy: 3.5 kcal/mol and 4.7 kcal/mol
  Tm: 53.6 °C
  unfolding enthalpy (calorimetric): 75 kcal/mol
  unfolding enthalpy (van 't Hoff): 74 kcal/mol

— FireProtDB (doi:10.1016/s0014-5793(98)01666-4)
